The values below come from paper PMC11955279, “The Molecular Mechanism of Interaction Between [sequence]3 and APETALA1 in Arabidopsis thaliana” (Plant Direct, 2025).

The data set deals with the molecule itself. The data set is described as follows: native gel or EMSA; chemiluminescent EMSA; purified protein bound to the biotin-labelled AP1 probe (single CArG cassette) at room temperature; dimer band on the DNA probe. Background: A gel shift assay detects complexes by their altered migration in electrophoresis.

B1: AtSEP3, wild type, recombinant GST-tagged protein (natural protein, Arabidopsis thaliana, UniProt O22456 2-251, looked up)
chain: GRGRVELKRIENKINRQVTFAKRRNGLLKKAYELSVLCDAEVALIIFSNRGKLYEFCSSSSMLRTLERYQKCNYGAPEPNVPSREALAVELSSQQEYLKLKERYDALQRTQRNLLGEDLGPLSTKELESLERQLDSSLKQIRALRTQFMLDQLNDLQSKERMLTETNKTLRLRLADGYQMPLQLNPNQEEVDHYGRHHHQQQQHSQAFFQPLECEPILQIGYQGQQDGMGAGPSVNNYMLGWLPYDTNSI
notes: also called wild-type SEP3 protein; source: E. coli BL-21 (DE3), pGEX-4T-3, purified (GST-tagged protein purification kit)
B1: the binding result was “binds”.
